Assay results reported in publication PMC3985918 (Biochemistry, 2014).

Experiments:
[1] = target: T1, TylM1 (Streptomyces fradiae, UniProt P95748); test: X-ray crystal structure, […] Å; format: binding; settings: complex with SAH; active site
T1 sequence (P95748 2-255): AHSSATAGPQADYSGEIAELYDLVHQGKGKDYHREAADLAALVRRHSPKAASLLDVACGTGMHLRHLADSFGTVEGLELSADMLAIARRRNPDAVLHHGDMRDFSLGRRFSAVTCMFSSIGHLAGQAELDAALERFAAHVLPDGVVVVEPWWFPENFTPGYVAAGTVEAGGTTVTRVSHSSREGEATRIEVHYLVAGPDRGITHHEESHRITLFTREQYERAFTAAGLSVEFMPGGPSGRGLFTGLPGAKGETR

[2] = target: T1, TylM1; test: X-ray crystal structure, […] Å; format: binding; settings: complex with SAH; active site; remark: listed apart in the source
[3] = substrate: Cc1cn([C@H]2C[C@H](O)[C@@H](COP(=O)(O)OP(=O)(O)O[C@H]3O[C@H](C)[C@@H](O)[C@H](N)[C@H]3O)O2)c(=O)[nH]c1=O; test: purified protein; settings: methyl donor SAM
[4] = substrate: Cc1cn([C@H]2C[C@H](O)[C@@H](COP(=O)(O)OP(=O)(O)O[C@H]3O[C@H](C)[C@H](O)[C@H](N)[C@H]3O)O2)c(=O)[nH]c1=O; test: purified protein; settings: methyl donor SAM

Molecule: Cc1cn([C@H]2C[C@H](O)[C@@H](COP(=O)(O)OP(=O)(O)O[C@H]3O[C@H](C)[C@@H](O)[C@H](N(C)C)[C@H]3O)O2)c(=O)[nH]c1=O [dTDP-mycaminose]
- X-ray crystal structure, 1.6 Å [1]: The first structure determined for this investigation was that of TylM1 in complex with SAH

Molecule: CN[C@H]1[C@@H](O)[C@@H](C)O[C@H](OP(=O)(O)OP(=O)(O)OC[C@H]2O[C@@H](n3cc(C)c(=O)[nH]c3=O)C[C@@H]2O)[C@@H]1O [dTDP-3-N-methylamino-3,6-dideoxygalactose]
- X-ray crystal structure, 2.2 Å [2]: enzyme in complex with SAH and dTDP-3-N-methylamino-3,6-dideoxygalactose

B1: TylM1 (Streptomyces fradiae) (protein)
chain: AHSSATAGPQADYSGEIAELYDLVHQGKGKDYHREAADLAALVRRHSPKAASLLDVACGTGMHLRHLADSFGTVEGLELSADMLAIARRRNPDAVLHHGDMRDFSLGRRFSAVTCMFSSIGHLAGQAELDAALERFAAHVLPDGVVVVEPWWFPENFTPGYVAAGTVEAGGTTVTRVSHSSREGEATRIEVHYLVAGPDRGITHHEESHRITLFTREQYERAFTAAGLSVEFMPGGPSGRGLFTGLPGAKGETR
- Km [3]: 79 ± 15 µM
- kcat [3]: 0.75 ± 0.09 s⁻¹
- Km [4]: 1540 ± 80 µM
- kcat [4]: 0.61 ± 0.07 s⁻¹
